1 molecule from article PMC2692298 (Science signaling, 2008) can be followed below.

For this test, the target named is stromal cell derived factor-1 (SDF-1, also known as CXCL12), wild type (UniProt P48061 22-93).

B1: CXCR4 N-terminal peptide p38-sY3 (sulfotyrosine at positions 7, 12 and 21) (peptide)
peptide: GSMEGISIYTSDNYTEEMGSGDYDSMKEPAFREENANFNK
modifications: sulfotyrosine at positions 7, 12 and 21
Regarding B1, the Kd amounted to 200 ± 200 nM and the “fold tighter binding than the unsulfated peptide p38” value is around 20 fold.

By Kd is commonly meant the constant that tells how readily two partners part at equilibrium. Lower therefore signals tighter binding.
